These results are taken from EP4663654A1 (Hangzhou Sciwind Biosciences Co., Ltd., dated 2025).

First the molecules themselves.
T1: human amylin receptor (AMY3) on CHO-K1/Ga15/AMY3 amylin receptor/CRE-luc cells (human, UniProt P30988 25-474; O60896 24-148)
T1 sequence (looked up) 1: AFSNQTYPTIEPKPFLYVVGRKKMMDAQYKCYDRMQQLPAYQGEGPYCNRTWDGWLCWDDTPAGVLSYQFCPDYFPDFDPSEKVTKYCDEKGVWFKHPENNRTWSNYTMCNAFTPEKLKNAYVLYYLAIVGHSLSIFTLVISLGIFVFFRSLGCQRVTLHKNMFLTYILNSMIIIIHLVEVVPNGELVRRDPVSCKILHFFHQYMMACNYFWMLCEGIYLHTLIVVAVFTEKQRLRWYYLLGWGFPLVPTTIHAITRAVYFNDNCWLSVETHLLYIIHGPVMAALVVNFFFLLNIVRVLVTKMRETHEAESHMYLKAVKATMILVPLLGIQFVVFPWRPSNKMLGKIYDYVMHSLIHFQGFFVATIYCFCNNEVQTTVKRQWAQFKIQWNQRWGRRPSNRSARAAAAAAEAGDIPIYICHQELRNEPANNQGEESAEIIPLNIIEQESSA
T1 sequence (looked up) 2: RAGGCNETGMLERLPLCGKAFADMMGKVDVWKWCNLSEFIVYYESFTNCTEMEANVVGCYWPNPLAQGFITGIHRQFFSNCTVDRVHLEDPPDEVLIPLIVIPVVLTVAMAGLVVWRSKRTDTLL

B1: polypeptide derivative M54 (peptide)
peptide: {C20 diacid-γGlu}-ASQLSTAATQRLADFLRHSSRNLKPILPPTNVGSNT[Hyp]-NH2
SMILES: CC[C@H](C)[C@H](NC(=O)[C@@H]1CCCN1C(=O)[C@H](CCCCN)NC(=O)[C@H](CC(C)C)NC(=O)[C@H](CC(N)=O)NC(=O)[C@H](CCCNC(=N)N)NC(=O)[C@H](CO)NC(=O)[C@H](CO)NC(=O)[C@H](Cc1c[nH]cn1)NC(=O)[C@H](CCCNC(=N)N)NC(=O)[C@H](CC(C)C)NC(=O)[C@H](Cc1ccccc1)NC(=O)[C@H](CC(=O)O)NC(=O)[C@H](C)NC(=O)[C@H](CC(C)C)NC(=O)[C@H](CCCNC(=N)N)NC(=O)[C@H](CCC(N)=O)NC(=O)[C@@H](NC(=O)[C@H](C)NC(=O)[C@H](C)NC(=O)[C@@H](NC(=O)[C@H](CO)NC(=O)[C@H](CC(C)C)NC(=O)[C@H](CCC(N)=O)NC(=O)[C@H](CO)NC(=O)[C@H](C)NC(=O)CC[C@H](NC(=O)CCCCCCCCCCCCCCCCCCC(=O)O)C(=O)O)[C@@H](C)O)[C@@H](C)O)C(=O)N[C@@H](CC(C)C)C(=O)N1CCC[C@H]1C(=O)N1CCC[C@H]1C(=O)N[C@H](C(=O)N[C@@H](CC(N)=O)C(=O)N[C@H](C(=O)NCC(=O)N[C@@H](CO)C(=O)N[C@@H](CC(N)=O)C(=O)N[C@H](C(=O)N1C[C@H](O)C[C@H]1C(N)=O)[C@@H](C)O)C(C)C)[C@@H](C)O
B2: polypeptide derivative M53 (peptide)
peptide: {C20 diacid-γGlu}-ASQLSTAATQRLADFLRHSSKNLKPILPPTNVGSNT[Hyp]-NH2
SMILES: CC[C@H](C)[C@H](NC(=O)[C@@H]1CCCN1C(=O)[C@H](CCCCN)NC(=O)[C@H](CC(C)C)NC(=O)[C@H](CC(N)=O)NC(=O)[C@H](CCCCN)NC(=O)[C@H](CO)NC(=O)[C@H](CO)NC(=O)[C@H](Cc1c[nH]cn1)NC(=O)[C@H](CCCNC(=N)N)NC(=O)[C@H](CC(C)C)NC(=O)[C@H](Cc1ccccc1)NC(=O)[C@H](CC(=O)O)NC(=O)[C@H](C)NC(=O)[C@H](CC(C)C)NC(=O)[C@H](CCCNC(=N)N)NC(=O)[C@H](CCC(N)=O)NC(=O)[C@@H](NC(=O)[C@H](C)NC(=O)[C@H](C)NC(=O)[C@@H](NC(=O)[C@H](CO)NC(=O)[C@H](CC(C)C)NC(=O)[C@H](CCC(N)=O)NC(=O)[C@H](CO)NC(=O)[C@H](C)NC(=O)CC[C@H](NC(=O)CCCCCCCCCCCCCCCCCCC(=O)O)C(=O)O)[C@@H](C)O)[C@@H](C)O)C(=O)N[C@@H](CC(C)C)C(=O)N1CCC[C@H]1C(=O)N1CCC[C@H]1C(=O)N[C@H](C(=O)N[C@@H](CC(N)=O)C(=O)N[C@H](C(=O)NCC(=O)N[C@@H](CO)C(=O)N[C@@H](CC(N)=O)C(=O)N[C@H](C(=O)N1C[C@H](O)C[C@H]1C(N)=O)[C@@H](C)O)C(C)C)[C@@H](C)O

Starred links: 1 amine or outer side, 2 acyl side, 3 side chain; linkers in the order of their positions; H or OH if unused. Non-standard residues stand in square brackets, D forms with d. *: point of attachment. C20 diacid = O=C(O)CCCCCCCCCCCCCCCCCCC(=O)*; γGlu = O=C(O)[C@H](CCC(=O)[*:2])N[*:1]; Hyp = O=C(O)[C@@H]1C[C@@H](O)CN1; αMeN = C[C@](N)(CC(N)=O)C(=O)O

The target of this assay is T1, human amylin receptor (AMY3) on …. The assay is described as follows: cell-based or functional assay.
Regarding B1, the “EC50/nM, CRE-luciferase reporter in amylin receptor/CRE-luc CHO cells” value (shortened to “EC50/nM … in amylin receptor/CRE-luc CHO cells”) amounted to 0.06 nM and the “Relative activity (the EC50 ratio of Cagrilintide to the compound)” value amounted to 267%.

In the case of {C20 diacid-γGlu}-ASQLSTAATQRLADFLRHSSN[αMeN]LKPILPPTNVGSNT[Hyp]-NH2 [polypeptide derivative M55], the “EC50/nM … in amylin receptor/CRE-luc CHO cells” value amounted to 0.03 nM and the “Relative activity (the EC50 ratio of Cagrilintide to the compound)” value was 233%.

As for B2, the “EC50/nM … in amylin receptor/CRE-luc CHO cells” value worked out at 0.08 nM and the “Relative activity (the EC50 ratio of Cagrilintide to the compound)” value was found to be 200%.
